From PMC2855162 (Molecular cell, 2010) come the findings set out here.

Sequences and labels used below:
B2: His-TRAF2 (domain or fragment, human)
chain: SELLQRCESLEKKTATFENIVCVLNREVERVAMTAEACSRQHRLDQDKIEALSSKVQQLERSIGL

The target in one series is T1, His-Smt3-TRAF1 (human).
T1 sequence (Q13077 whole entry, looked up): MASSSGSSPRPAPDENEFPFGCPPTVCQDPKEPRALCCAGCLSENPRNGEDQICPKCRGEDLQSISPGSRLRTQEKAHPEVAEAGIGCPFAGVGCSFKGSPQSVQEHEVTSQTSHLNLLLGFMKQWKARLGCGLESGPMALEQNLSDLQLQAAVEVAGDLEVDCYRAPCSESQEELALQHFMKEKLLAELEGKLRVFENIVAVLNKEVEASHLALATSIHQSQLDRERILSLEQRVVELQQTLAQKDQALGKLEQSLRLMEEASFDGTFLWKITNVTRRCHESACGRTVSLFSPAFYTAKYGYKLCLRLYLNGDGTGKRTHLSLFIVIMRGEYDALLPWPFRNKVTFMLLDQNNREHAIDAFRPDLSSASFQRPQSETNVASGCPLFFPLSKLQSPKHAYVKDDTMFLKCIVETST
Briefly: SEC-MALS. A general note: In gel filtration, larger molecules generally elute earlier.

In series [1] the target is T2, TRAF2 construct containing residues 266-329 (human, UniProt Q12933 266-329).
T2 sequence (looked up): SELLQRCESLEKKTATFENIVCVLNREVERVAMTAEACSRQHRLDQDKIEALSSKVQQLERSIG
Briefly: SEC-MALS.

The series “SEC-MALS” deals with the molecule itself. Briefly: SEC-MALS.
The target in the series “His-TRAF2” is B2. The series can be described thus: pull-down.

The term stoichiometry N denotes a count of units in the complex or per binding partner.

The molecule His-Smt3-TRAF1 (domain or fragment) showed a stoichiometry N with His-Smt3-TRAF1 (human) of 3.

B1: cIAP2 BIR1 domain (residues 26-99), non-tagged (domain or fragment, human, UniProt Q13489 26-99, looked up)
chain: LSCELYRMSTYSTFPAGVPVSERSLARAGFYYTGVNDKVKCFCCGLMLDNWKRGDSPTEKHKKLYPSCRFVQSL
With B1, in series [1], the “stoichiometry N” value is 3 TRAF2 molecules per cIAP2 BIR1 molecule. Take B2: the “stoichiometry N” value in the series “SEC-MALS” came to 3. The stoichiometry N (TRAF2 per TRAF1) in the series with His-Smt3-TRAF1 (human) turned out to be 2.

B3: untagged TRAF1 (co-expressed with His-tagged TRAF2 and cIAP2) (domain or fragment, human)
chain: FMKEKLLAELEGKLRVFENIVAVLNKEVEASHLALATSIHQSQLDRERILSLEQRVVELQQTLA
Take B3: the “stoichiometry N” value with His-TRAF2 is ~2 TRAF2 per TRAF1.
